The record followed here is article PMC10603135, “Phosphorylation-dependent pseudokinase domain dimerization drives full-length MLKL oligomerization” (Nature Communications, 2023).

Data set [1] concerns the target phosphorylated human MLKL (p-MLKL) pseudokinase domain (190-471) (human) (UniProt Q8NB16). The data set can be described thus: SEC; purified pseudokinase domain on Superdex 200 in 20 mM HEPES pH 7.5, 200 mM NaCl, 5% v/v glycerol.
The target is the same in data set [2]. The data set can be described thus: SEC-SAXS; p-MLKL pseudokinase domain, 40 uL of 7.2 mg/mL, inline Superdex 200 Increase 5/150, 0.2 M NaCl, 20 mM HEPES pH 7.5, 5% v/v glycerol, 283 K.
Data set [3] deals with MLKL (mixed lineage kinase domain-like) pseudokinase domain, 190-471 (UniProt Q8NB16). Briefly: size-exclusion chromatography. The note with it: reference: p-MLKL pseudokinase domain; sites T357,S358,T355,S360.
Data set [4] deals with full-length human MLKL (residues 2-471) T357E/S358E mutant (human) (UniProt Q8NB16). Briefly: SEC; full-length MLKL (WT or T357E/S358E) co-expressed with RIPK3 kinase domain in Sf21, purified by GST on MLKL, tag cleaved, HiLoad Superdex 200 in SEC buffer; fractions on reducing SDS-PAGE.
For data set [5], the target named is unphosphorylated human MLKL pseudokinase domain (residues 190-471) (human) (UniProt Q8NB16). Briefly: SEC-SAXS; MLKL pseudokinase domain:Mb27 complex pre-purified on Superdex 75, 50 uL of 5.6 mg/mL, inline Superdex 200 Increase 5/150, 0.2 M NaCl, 20 mM HEPES pH 7.5, 5% v/v glycerol, 283 K.
Data set [6] deals with the molecule itself. Briefly: SEC; full-length MLKL expressed alone in Sf21, purified, HiLoad Superdex 200 in SEC buffer.
Data set [7] concerns the molecule itself. The data set can be described thus: SEC; full-length MLKL (WT or T357E/S358E) co-expressed with RIPK3 kinase domain in Sf21, purified by GST on MLKL, tag cleaved, HiLoad Superdex 200 in SEC buffer; fractions on reducing SDS-PAGE.

As for “phosphorylated human MLKL (p-MLKL) pseudokinase domain (190-471) (from UniProt Q8NB16 190-471) (domain or fragment)”, the stoichiometry N in data set [1] and in data set [2] was 2 in each case.
Consider “MLKL (mixed lineage kinase domain-like) pseudokinase domain, 190-471 (from UniProt Q8NB16) λ phosphatase treated p-MLKL”, for which the “binding against the reference” value in data set [3] is “lost”.
“human RIPK3 kinase domain (residues 1-316; C3S, C110A), co-expressed with full-length MLKL (from UniProt Q9Y572 1-316) (domain or fragment)” showed a stoichiometry N (RIPK3 per MLKL (1:1)) in data set [4] of 1.
For the molecule “unphosphorylated human MLKL pseudokinase domain (residues 190-471) (from UniProt Q8NB16 190-471) (domain or fragment)”, in data set [5], the stoichiometry N was 2.

B1: recombinant full-length human MLKL (residues 2-471), wild-type (natural protein, UniProt Q8NB16 2-471, looked up)
chain: ENLKHIITLGQVIHKRCEEMKYCKKQCRRLGHRVLGLIKPLEMLQDQGKRSVPSEKLTTAMNRFKAALEEANGEIEKFSNRSNICRFLTASQDKILFKDVNRKLSDVWKELSLLLQVEQRMPVSPISQGASWAQEDQQDADEDRRAFQMLRRDNEKIEASLRRLEINMKEIKETLRQYLPPKCMQEIPQEQIKEIKKEQLSGSPWILLRENEVSTLYKGEYHRAPVAIKVFKKLQAGSIAIVRQTFNKEIKTMKKFESPNILRIFGICIDETVTPPQFSIVMEYCELGTLRELLDREKDLTLGKRMVLVLGAARGLYRLHHSEAPELHGKIRSSNFLVTQGYQVKLAGFELRKTQTSMSLGTTREKTDRVKSTAYLSPQELEDVFYQYDVKSEIYSFGIVLWEIATGDIPFQGCNSEKIRKLVAVKRQQEPLGEDCPSELREIIDECRAHDPSVRPSVDEILKKLSTFSK
notes: human MLKL, called full-length, residues 2-471; Expressed alone it elutes primarily as monomers with a smaller proportion of tetramers; with Mb27 all as tetramers; also called full-length MLKL; MLKL alone; source: Sf21 insect cells, expressed alone or co-expressed with Mb27, purified (glutathione resin, TEV cleavage, SEC); not shown: GST, N-terminal, cleaved
Consider B1, for which the “stoichiometry N” value in data set [6] was determined as 4.

B2: full-length human p-MLKL tetramer (wild-type MLKL 2-471 co-expressed with RIPK3 kinase domain) (natural protein, UniProt Q8NB16 2-471, looked up)
chain: B1 chain
modifications: phosphorylated by co-expressed RIPK3 (sites not printed for the full-length protein); disulfide-linked via C184
notes: human MLKL, called full-length, residues 2-471; The purified tetramer carries sub-stoichiometric RIPK3 kinase domain; also called wild-type p-MLKL tetramer; MLKL (WT):RIPK3; source: Sf21 insect cells, co-expressed with RIPK3 kinase domain, purified (glutathione resin, TEV cleavage, SEC); not shown: GST, N-terminal, cleaved
For B2, in data set [7], the “stoichiometry N” value was found to be 4.
